Experimental data published in patent publication US11787839B2, “Targeting α2δ-1-bound glutamate receptors for treating diseases and disorders” (Board of Regents, The University of Texas System, priority 2017, dated 2023).

Assays:
[1] = target: presynaptic NMDARs of spinal lamina II neurons (Rattus norvegicus, UniProt P35439+Q00959+Q00960)
[2] = tested on: SNL rats; assay: Withdrawal thresholds in spinal nerve ligation (SNL), sham and naive rats; type: in vivo, rat
Text: Animal models of neuropathic pain: All surgical preparations and experimental protocols were approved by the Animal Care and Use Committee of the University of Texas MD Anderson Cancer Center and conformed to the National Institutes of Health guidelines for the ethical use of animals. Male Sprague-Dawley rats (8-10 weeks of age) were purchased from Harlan Laboratories (Indianapolis, Ind.). L5 and L6 spinal nerve ligation (SNL) were used as an experimental model of neuropathic pain (Cole et al., 2005). In brief, anesthesia was induced with 2-3% isoflurane, isolated the left L5-L6 spinal nerves and ligated them tightly with 6-0 silk sutures. The rats in the sham control group underwent the same surgical procedures except for the nerve ligation.
Intrathecal catheters were implanted in some SNL group rats during isoflurane-induced anesthesia 2-3 weeks after SNL surgery. Briefly, the anesthetized animal was placed on a stereotaxic frame, and a small incision was made at the back of its neck. Then, a small puncture was made in the atlanto-occipital membrane of the cisterna magna, and a PE-10 catheter (˜8 cm) was inserted with the caudal tip reaching the lumbar enlargement of the spinal cord (Luo et al., 2001; Patel et al., 2013). The rostral end of the catheter was exteriorized and closed the wound with sutures. The animals were allowed to recover for at least 4 days before the intrathecal injections were performed. Animals displaying signs of motor or neurological dysfunction were immediately killed with an intraperitoneal injection of phenobarbital (200 mg/kg) or by inhalation of CO2.
Behavioral assessments of nociception: To detect tactile allodynia, von Frey filaments were applied to the animals' left hindpaws (ipsilateral to the nerve injury). The rats or mice were placed individually in suspended chambers on a mesh floor. After an acclimation period of 30 min, a series of calibrated von Frey filaments were applied (Stoelting, Wood Dale, Ill.) perpendicularly to the plantar surface of the hindpaw with sufficient force to bend the filament for 6 s. Brisk withdrawal or paw flinching was considered a positive response. After a response, the filament of the next lower force was applied. In the absence of a response, the filament of the next greater force was applied. Using the up-down method, the tactile stimulus that produced a 50% likelihood of a withdrawal response was calculated (Fuller-Bicer et al., 2009).
To quantify the mechanical nociceptive threshold in the rats and mice (Patel et al., 2013; Dolphin et al., 2012), the paw pressure tests were conducted on the hindpaw with an analgesiometer (Ugo Basile, Varese, Italy). The device was activated by pressing a foot pedal, which triggered a motor that applied a constantly increasing force on a linear scale. […]

[3] = target: T1, α2δ-1 and NMDAR subunits in spinal cord synaptosomes (Rattus norvegicus, UniProt P35439+Q00959+Q00960); assay: Protein levels in spinal cord synaptosomes of treated slices (SNL, sham); type: cell-based; details: SNL rats; slices treated 30 min
T1 construct: from tissue; host or cells: rat lumbar spinal cord slices (lamina II neurons) and synaptosomes made from them
Procedure: PSD-95, a known postsynaptic protein, was used as an internal control.
Spinal cord synaptosome preparation: The spinal cord slices were pooled from 2 rats and were homogenized using glass-Teflon homogenizer in 10 volumes of ice-cold HEPES-buffered sucrose (0.32 M sucrose, 1 mM EGTA, and 4 mM HEPES at pH 7.4) containing the protease inhibitor cocktail (Sigma-Aldrich). The homogenate was centrifuged at 1,000×g for 10 min at 4° C. to remove the nuclei and large debris. […] The synaptosomal pellet was lysed via hypo-osmotic shock in 9 volumes of ice-cold HEPES-buffer with the protease inhibitor cocktail for 30 min. The lysate was centrifuged at 25,000×g for 20 min at 4° C. to obtain the synaptosomal membrane fraction, which was then dissolved in sodium dodecyl sulfate sample buffer at a final concentration of 0.25 μg/μl for immunoblotting. […] The α2δ-1Tat peptide and scrambled control peptide were synthesized by Bio Basic Inc. (Marham, Ontario, Canada) and validated by using liquid chromatography and mass spectrometry.

[4] = tested on: SHRs; assay: PVN microinjection and recording of ABP and RSNA in SHRs; type: in vivo, rat; details: 50 pmol
Procedure: PVN microinjection and recording of renal sympathetic nerve activity: Rats were anaesthetized via i.p. administration of a mixture of α-chloralose (60 mg kg-1) and urethane (800 mg kg-1) and mechanically ventilated with trachea cannulation. The arterial blood pressure (ABP) was monitored via a catheter placed in the left femoral artery, and heart rate (HR) was extracted from the pulsatile pressure wave. A retroperitoneal incision was made, and a branch of the left renal postganglionic sympathetic nerve was isolated under a surgical microscope. The renal sympathetic nerve was cut distally to ensure that afferent activity was not recorded. The ABP, HR and renal sympathetic nerve activity (RSNA) were recorded using a 1401-PLUS analogue-to-digital converter and Spike2 system (Cambridge Electronic Design, Cambridge, UK). After the brain was exposed, a microinjection pipette (tip diameter 20-30 μm) was advanced into the PVN in accordance with the stereotactic co-ordinates: 1.6-2.0 mm caudal to the bregma, 0.5 mm lateral to the midline and 7.0-7.5 mm ventral to the dura. The microinjection was performed using a Nanoject II (Drummond Scientific Company) and monitored using a surgical microscope as described previously (Li & Pan, 2006, 2007; Qiao et al. 2017). […] At the end of each experiment, the electrical background noise was measured after the proximal end of renal nerve was crushed at the end of each experiment. To determine the location of the injection site and diffusion of the drugs in the PVN, 5% rhodamine-labelled fluorescent microspheres (0.04 μm; Molecular Probes) were included in the injection solution. Rats were excluded from the data analysis if the microinjections were misplaced outside the PVN.

[5] = target: T2, N-type Ca2+ channels (Cav2.2, Cavb1, α2δ-1) (UniProt P54290+Q00975); assay: VACC (N-type Ca2+ channel) currents in HEK293 cells; type: cell-based; details: HEK293 cotransfected with Cav2.2, Cavb1 and α2δ-1, 60 min
T2 construct: expressed in transfected cells; host or cells: HEK293

[6] = tested on: Cacna2d1 KO mice; assay: Nerve injury-induced pain hypersensitivity in Cacna2d1 KO mice; type: in vivo, mouse
Procedure: Conventional α2δ-1 KO mice (C57BL/6 genetic background) were generated as described previously (Muller et al., 2010). Two breeding pairs of α2δ-1^+/− mice were purchased from Medical Research Council (Harwell Didcot, Oxfordshire, UK), and α2δ-I^−/− mice and α2δ-1^+/+ (wild-type) littermates were obtained by breeding the heterozygous mice. The spared nerve injury (SNI) procedure […] was performed on both male and female mice (10-11 weeks of age). Under a surgical microscope, the left common peroneal and tibial nerves were ligated and sectioned, leaving the sural nerve intact. The sham procedure consisted of the same surgery without nerve ligation and sectioning.
Behavioral assessments of nociception: To detect tactile allodynia, von Frey filaments were applied to the animals' left hindpaws (ipsilateral to the nerve injury). The rats or mice were placed individually in suspended chambers on a mesh floor. […] Using the up-down method, the tactile stimulus that produced a 50% likelihood of a withdrawal response was calculated (Fuller-Bicer et al., 2009).
To quantify the mechanical nociceptive threshold in the rats and mice (Patel et al., 2013; Dolphin et al., 2012), the paw pressure tests were conducted on the hindpaw with an analgesiometer (Ugo Basile, Varese, Italy). […]

[7] = paclitaxel-treated rats, AP5 50 μM, pregabalin 20 μM, peptides 1 μM
[8] = vehicle-treated rats, AP5 50 μM, pregabalin 20 μM, peptides 1 μM

Sequence of presynaptic NMDARs of spinal lamina II neurons (Q00959 20-1464 limits assumed, other chains not shown): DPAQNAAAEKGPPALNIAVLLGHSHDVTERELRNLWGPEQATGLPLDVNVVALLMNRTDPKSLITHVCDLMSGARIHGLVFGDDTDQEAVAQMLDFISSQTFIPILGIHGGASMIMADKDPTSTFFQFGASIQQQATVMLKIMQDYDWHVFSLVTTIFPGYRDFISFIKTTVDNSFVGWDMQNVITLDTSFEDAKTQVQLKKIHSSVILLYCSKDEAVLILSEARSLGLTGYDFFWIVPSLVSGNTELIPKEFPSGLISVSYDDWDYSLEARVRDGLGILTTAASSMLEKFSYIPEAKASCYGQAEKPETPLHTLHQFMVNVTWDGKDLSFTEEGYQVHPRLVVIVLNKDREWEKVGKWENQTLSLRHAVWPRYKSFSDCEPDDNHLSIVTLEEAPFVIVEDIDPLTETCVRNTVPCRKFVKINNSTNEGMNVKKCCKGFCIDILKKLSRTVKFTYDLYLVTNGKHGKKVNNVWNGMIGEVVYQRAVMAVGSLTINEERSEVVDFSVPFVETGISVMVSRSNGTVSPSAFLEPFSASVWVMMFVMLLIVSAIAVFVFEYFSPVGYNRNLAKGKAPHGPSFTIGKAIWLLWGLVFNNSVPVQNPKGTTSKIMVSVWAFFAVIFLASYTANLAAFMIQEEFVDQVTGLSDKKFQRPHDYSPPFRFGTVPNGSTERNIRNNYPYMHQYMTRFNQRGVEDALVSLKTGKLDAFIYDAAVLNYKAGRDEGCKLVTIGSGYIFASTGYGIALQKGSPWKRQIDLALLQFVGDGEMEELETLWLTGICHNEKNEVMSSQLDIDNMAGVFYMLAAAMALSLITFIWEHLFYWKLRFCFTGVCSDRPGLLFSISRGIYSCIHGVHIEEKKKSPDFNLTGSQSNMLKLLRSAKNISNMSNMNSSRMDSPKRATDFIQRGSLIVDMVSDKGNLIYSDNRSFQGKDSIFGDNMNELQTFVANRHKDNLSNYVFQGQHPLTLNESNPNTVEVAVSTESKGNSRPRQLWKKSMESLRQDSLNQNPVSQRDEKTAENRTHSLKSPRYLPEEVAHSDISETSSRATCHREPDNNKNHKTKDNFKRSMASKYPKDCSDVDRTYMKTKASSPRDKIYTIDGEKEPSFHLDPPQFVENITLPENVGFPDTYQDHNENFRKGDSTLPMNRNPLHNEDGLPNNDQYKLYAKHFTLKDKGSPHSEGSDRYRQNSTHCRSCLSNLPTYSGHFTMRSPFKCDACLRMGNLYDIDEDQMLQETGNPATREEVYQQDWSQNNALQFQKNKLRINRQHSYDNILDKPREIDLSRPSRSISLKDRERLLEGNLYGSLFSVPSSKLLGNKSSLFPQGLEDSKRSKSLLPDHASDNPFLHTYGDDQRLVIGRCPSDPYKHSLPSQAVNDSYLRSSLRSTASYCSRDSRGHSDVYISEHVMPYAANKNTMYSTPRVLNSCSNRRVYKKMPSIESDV
Sequence of presynaptic NMDARs of spinal lamina II neurons (Q00960 27-1482, other chains not shown): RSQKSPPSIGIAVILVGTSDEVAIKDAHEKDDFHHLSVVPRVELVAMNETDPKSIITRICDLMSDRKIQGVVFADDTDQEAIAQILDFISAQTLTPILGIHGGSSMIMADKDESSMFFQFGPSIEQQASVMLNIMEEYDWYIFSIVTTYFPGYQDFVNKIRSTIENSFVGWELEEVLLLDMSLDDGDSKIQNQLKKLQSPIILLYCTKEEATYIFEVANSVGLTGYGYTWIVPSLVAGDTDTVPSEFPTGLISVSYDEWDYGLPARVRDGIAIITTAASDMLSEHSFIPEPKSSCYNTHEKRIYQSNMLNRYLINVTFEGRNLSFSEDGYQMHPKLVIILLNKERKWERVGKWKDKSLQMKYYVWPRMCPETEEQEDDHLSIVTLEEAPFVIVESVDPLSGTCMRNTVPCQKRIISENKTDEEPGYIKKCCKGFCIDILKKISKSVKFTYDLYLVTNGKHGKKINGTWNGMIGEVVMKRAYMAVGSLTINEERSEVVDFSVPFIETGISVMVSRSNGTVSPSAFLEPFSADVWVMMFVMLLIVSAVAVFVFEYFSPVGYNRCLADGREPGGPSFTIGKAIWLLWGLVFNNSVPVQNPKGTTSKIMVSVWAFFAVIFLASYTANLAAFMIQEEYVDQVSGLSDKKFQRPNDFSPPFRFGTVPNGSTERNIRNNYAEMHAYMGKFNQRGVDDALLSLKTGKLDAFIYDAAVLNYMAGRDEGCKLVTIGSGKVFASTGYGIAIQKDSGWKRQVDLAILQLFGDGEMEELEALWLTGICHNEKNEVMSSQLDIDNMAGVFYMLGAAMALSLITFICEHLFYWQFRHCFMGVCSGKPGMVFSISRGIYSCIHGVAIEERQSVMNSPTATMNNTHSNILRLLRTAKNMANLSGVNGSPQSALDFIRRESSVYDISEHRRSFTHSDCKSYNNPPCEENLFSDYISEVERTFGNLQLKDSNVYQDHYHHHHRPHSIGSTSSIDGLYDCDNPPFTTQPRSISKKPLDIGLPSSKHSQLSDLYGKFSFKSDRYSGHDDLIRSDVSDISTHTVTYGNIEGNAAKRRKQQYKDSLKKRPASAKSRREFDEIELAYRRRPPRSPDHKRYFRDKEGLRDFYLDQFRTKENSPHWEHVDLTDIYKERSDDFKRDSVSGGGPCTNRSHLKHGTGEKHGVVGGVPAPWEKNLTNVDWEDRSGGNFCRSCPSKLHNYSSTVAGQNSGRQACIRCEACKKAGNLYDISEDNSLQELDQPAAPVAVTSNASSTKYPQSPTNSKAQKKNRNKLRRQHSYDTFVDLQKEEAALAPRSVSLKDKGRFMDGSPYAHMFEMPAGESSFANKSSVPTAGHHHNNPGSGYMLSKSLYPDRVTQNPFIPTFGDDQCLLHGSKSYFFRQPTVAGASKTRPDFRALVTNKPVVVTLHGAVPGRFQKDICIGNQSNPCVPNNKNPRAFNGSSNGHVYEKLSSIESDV

YGRKKRRQRRRVSGLNPSLWSIFGLQFILLWLVSGSRHYLW (a2d1 peptide) [α2δ-1Tat peptide, 30-amino-acid peptide mimicking the C-terminal domain of α2δ-1 fused to the cell-penetrating peptide Tat]
reduced PPR of evoked EPSCs ([1]; paclitaxel-treated rats): fully reversed
increased amplitude of evoked monosynaptic EPSCs [1, 7]: completely reversed
increased frequency of mEPSCs of lamina II neurons [1, 7]: completely normalized
PPR of evoked EPSCs ([1]; vehicle-treated rats): had no effect
amplitude of evoked monosynaptic EPSCs [1, 8]: did not affect
frequency of mEPSCs of lamina II neurons [1, 8]: neither incubation with α2δ-1Tat peptide nor bath application of AP5 had any effect
pain hypersensitivity of SNL rats ([2]; SNL rats, peptides intrathecal or systemic, siRNA intrathecal): large reduction
withdrawal thresholds in sham control rats ([2]; sham control rats): had no effect
increased protein levels of GluN1, GluN2A, GluN2B and α2δ-1 in spinal cord synaptosomes [3]: largely normalized
ABP and RSNA ([4]; 50 nL bilaterally into the PVN): significantly decreased
duration of the effect on the mean ABP and RSNA ([4]; 50 nL into the PVN): more than 60 min
VACC (N-type Ca2+ channel) currents [5]: no effect
VACC (N-type Ca2+ channel) currents ([5]; listed as α2δ-1 Tat peptide): had no significant effect
nerve injury-induced pain hypersensitivity in Cacna2d1 KO mice [6]: had no effect
